Biological target: T1, GST-FIH (human, UniProt Q9NWT6 1-349)
T1 construct: human FIH, cDNA NM_017902.2 in pGEX; also called recombinant FIH
Experiment: pull-down; GST-FIH and His-NAA10 WT or W38F in binding buffer, 4 °C, 1 h; nickel affinity beads; Western blot
Conditions: both partners purified

T1 sequence (Q9NWT6 whole entry): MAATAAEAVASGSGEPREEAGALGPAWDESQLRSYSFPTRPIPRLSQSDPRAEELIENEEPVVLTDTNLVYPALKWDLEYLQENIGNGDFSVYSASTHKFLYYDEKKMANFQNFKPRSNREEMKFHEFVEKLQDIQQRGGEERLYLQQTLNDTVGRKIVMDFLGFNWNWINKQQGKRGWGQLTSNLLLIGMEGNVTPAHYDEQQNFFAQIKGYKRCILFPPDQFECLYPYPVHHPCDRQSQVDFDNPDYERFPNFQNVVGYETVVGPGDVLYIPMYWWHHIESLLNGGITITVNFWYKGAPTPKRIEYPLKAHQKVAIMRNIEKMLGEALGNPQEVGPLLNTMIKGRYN

B1: His(6)-NAA10 W38F (enzyme, human, UniProt P41227-1 1-235, looked up)
chain: MNIRNARPEDLMNMQHCNLLCLPENYQMKYYFYHGLSFPQLSYIAEDENGKIVGYVLAKMEEDPDDVPHGHITSLAVKRSHRRLGLAQKLMDQASRAMIENFNAKYVSLHVRKSNRAALHLYSNTLNFQISEVEPKYYADGEDAYAMKRDLTQMADELRRHLELKEKGRHVVLGAIENKVESKGNSPPSSGEACREEKGLAAEDSGGDSKDLSEVSETTESTDVKDSSEASDSAS
notes: human NAA10, cDNA NM_003491 in pET-28c-HIS, with W38F by PCR-based mutagenesis; also called W38F mutant; source: E. coli BL21, purified (Nickel-NTA beads, eluted with imidazole)
B1: binds.
